Source: PMC5589196 (Cell, 2016)

T1: TFIIF (S. cerevisiae, UniProt P41895 1-735; P41896 1-400; P35189 1-244)
T1 sequence (looked up) 1: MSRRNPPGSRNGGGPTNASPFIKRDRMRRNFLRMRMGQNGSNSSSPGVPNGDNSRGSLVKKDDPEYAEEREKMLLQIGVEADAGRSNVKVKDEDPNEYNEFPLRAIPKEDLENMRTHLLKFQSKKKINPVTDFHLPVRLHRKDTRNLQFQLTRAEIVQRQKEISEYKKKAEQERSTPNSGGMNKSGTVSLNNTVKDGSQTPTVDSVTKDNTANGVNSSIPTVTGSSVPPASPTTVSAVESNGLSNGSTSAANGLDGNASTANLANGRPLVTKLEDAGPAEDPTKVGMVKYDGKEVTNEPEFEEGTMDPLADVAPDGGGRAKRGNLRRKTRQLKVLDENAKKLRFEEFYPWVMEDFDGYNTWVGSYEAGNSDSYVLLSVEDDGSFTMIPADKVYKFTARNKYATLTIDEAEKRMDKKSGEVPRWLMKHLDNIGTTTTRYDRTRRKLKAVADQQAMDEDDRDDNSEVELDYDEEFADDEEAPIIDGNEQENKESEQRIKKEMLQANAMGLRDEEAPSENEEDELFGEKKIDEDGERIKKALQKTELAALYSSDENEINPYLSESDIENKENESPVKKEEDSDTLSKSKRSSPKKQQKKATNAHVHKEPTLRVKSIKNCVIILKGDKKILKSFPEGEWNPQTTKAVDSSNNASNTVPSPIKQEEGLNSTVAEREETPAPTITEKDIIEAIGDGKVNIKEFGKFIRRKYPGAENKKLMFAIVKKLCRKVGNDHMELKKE
T1 sequence (looked up) 2: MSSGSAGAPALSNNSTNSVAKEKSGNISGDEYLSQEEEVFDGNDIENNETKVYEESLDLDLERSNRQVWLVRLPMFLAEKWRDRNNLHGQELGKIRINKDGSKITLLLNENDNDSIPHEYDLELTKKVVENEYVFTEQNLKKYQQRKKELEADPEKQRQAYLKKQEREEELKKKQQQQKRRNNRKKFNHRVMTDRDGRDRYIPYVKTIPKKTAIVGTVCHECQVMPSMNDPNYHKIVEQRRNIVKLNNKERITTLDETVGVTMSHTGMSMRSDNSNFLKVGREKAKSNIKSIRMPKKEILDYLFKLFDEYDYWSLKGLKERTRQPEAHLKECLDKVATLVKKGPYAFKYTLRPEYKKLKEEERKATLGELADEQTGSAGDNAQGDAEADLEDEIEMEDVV
T1 sequence (looked up) 3: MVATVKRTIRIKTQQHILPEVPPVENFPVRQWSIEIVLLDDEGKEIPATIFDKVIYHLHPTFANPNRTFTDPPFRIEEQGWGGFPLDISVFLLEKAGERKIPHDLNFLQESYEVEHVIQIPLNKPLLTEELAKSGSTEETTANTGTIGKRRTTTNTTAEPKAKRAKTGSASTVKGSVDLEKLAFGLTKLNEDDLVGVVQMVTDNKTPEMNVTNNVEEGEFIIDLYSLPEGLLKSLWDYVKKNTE

T2: Tfg1 (S. cerevisiae, UniProt P41895 1-735)
T2 sequence (looked up): T1 sequence (looked up) 1

T3: Rad3 (S. cerevisiae, UniProt P06839 1-778)
T3 sequence (looked up): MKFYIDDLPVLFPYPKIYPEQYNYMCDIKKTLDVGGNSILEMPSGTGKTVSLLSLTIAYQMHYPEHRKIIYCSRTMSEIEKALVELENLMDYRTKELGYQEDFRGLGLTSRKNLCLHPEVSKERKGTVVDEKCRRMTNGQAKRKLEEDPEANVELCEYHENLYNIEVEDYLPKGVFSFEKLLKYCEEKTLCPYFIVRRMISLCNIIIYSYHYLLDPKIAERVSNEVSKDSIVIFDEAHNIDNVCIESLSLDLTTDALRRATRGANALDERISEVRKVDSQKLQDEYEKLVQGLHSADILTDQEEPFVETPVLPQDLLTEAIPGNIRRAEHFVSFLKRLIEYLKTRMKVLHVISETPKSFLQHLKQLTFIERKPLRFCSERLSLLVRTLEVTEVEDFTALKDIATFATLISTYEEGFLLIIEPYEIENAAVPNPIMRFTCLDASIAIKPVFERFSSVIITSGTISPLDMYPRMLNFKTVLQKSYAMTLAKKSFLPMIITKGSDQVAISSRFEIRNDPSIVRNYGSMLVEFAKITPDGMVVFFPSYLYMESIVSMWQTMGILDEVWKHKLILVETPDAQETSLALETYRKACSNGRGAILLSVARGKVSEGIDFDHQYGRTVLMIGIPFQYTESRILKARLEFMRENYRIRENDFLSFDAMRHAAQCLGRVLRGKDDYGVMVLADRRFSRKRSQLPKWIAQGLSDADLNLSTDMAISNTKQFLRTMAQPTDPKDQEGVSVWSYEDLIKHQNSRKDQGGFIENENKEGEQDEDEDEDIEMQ

T4: Med5 (S. cerevisiae, UniProt P53114 1-1132)
T4 sequence (looked up): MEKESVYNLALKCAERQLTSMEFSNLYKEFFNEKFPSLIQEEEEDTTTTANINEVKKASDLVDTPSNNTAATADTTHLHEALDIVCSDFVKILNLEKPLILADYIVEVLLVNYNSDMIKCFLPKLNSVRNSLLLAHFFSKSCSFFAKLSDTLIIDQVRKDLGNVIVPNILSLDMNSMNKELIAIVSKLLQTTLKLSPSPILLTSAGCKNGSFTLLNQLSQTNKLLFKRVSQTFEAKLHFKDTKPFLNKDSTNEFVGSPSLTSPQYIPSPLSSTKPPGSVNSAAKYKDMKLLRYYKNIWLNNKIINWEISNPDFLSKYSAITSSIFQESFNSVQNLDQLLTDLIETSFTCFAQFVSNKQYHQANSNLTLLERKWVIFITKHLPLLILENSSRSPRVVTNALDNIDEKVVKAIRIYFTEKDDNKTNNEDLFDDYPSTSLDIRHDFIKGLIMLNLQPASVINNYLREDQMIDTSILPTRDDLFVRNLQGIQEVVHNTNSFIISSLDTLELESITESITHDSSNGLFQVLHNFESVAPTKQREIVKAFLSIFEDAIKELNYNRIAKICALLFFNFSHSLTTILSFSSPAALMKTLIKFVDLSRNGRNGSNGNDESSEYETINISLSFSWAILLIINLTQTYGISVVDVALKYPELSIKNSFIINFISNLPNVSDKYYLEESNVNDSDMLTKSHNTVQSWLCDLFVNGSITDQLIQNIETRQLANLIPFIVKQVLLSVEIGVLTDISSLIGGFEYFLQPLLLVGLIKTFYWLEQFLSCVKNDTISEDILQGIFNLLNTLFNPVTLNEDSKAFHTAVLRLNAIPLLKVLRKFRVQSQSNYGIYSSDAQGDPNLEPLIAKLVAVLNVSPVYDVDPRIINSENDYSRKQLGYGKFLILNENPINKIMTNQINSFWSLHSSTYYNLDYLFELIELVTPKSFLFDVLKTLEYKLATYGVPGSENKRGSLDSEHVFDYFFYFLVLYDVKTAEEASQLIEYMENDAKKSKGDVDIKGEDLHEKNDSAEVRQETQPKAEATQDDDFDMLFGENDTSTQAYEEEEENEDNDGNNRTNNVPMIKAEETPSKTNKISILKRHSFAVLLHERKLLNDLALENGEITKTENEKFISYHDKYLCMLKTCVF

B1: TFIIE (complex, S. cerevisiae)
chain 1: MDRPIDDIVKNLLKFVVRGFYGGSFVLVLDAILFHSVLAEDDLKQLLSINKTELGPLIARLRSDRLISIHKQREYPPNSKSVERVYYYVKYPHAIDAIKWKVHQVVQRLKDDLDKNSEPNGYMCPICLTKYTQLEAVQLLNFDRTEFLCSLCDEPLVEDDSGKKNKEKQDKLNRLMDQIQPIIDSLKKIDDSRIEENTFEIALARLIPPQNQSHAAYTYNPKKGSTMFRPGDSAPLPNLMGTALGNDSSRRAGANSQATLHINITTASDEVAQRELQERQAEEKRKQNAVPEWHKQSTIGKTALGRLDNEEEFDPVVTASAMDSINPDNEPAQETSYQNNRTLTEQEMEERENEKTLNDYYAALAKKQAKLNKEEEEEEEEEEDEEEEEEEEMEDVMDDNDETARENALEDEFEDVTDTAGTAKTESNTSNDVKQESINDKTEDAVNATATASGPSANAKPNDGDDDDDDDDDEMDIEFEDV
chain 2: MSKNRDPLLANLNAFKSKVKSAPVIAPAKVGQKKTNDTVITIDGNTRKRTASERAQENTLNSAKNPVLVDIKKEAGSNSSNAISLDDDDDDEDFGSSPSKKVRPGSIAAAALQANQTDISKSHDSSKLLWATEYIQKKGKPVLVNELLDYLSMKKDDKVIELLKKLDRIEFDPKKGTFKYLSTYDVHSPSELLKLLRSQVTFKGISCKDLKDGWPQCDETINQLEEDSKILVLRTKKDKTPRYVWYNSGGNLKCIDEEFVKMWENVQLPQFAELPRKLQDLGLKPASVDPATIKRQTKRVEVKKKRQRKGKITNTHMTGILKDYSHRV
B2: Tfg3 (natural protein, S. cerevisiae, UniProt P35189 1-244, looked up)
chain: T1 sequence (looked up) 3
B3: Tfb3 (natural protein, S. cerevisiae, UniProt Q03290 1-321, looked up)
chain: MLMDEYEENKDMCPICKTDRYLSPDVKFLVNPECYHRICESCVDRIFSLGPAQCPYKGCDKILRKNKFKTQIFDDVEVEKEVDIRKRVFNVFNKTIDDFNGDLVEYNKYLEEVEDIIYKLDHGIDVAKTEEKLRTYEELNKQLIMNNLERSRTEIESFEQRQKFEKEMKLKKRLLERQIEEEERMNKEWTKKEIVNRLSTTTQDINETIEGVKNTVKLKKSSARRKLEELNRVLKNNPYFNSNVNVQNSRLKDAVPFTPFNGDREAHPRFTLKGSVYNDPFIKDLEHRKEFIASGFNTNYAYERVLTEAFMGLGCVISEEL
B4: Med1 (natural protein, S. cerevisiae, UniProt Q12321 1-566, looked up)
chain: MVEGDSYVETLDSMIELFKDYKPGSITLENITRLCQTLGLESFTEELSNELSRLSTASKIIVIDVDYNKKQDRIQDVKLVLASNFDNFDYFNQRDGEHEKSNILLNSLTKYPDLKAFHNNLKFLYLLDAYSHIESDSTSHNNGSSDKSLDSSNASFNNQGKLDLFKYFTELSHYIRQCFQDNCCDFKVRTNLNDKFGIYILTQGINGKEVPLAKIYLEENKSDSQYRFYEYIYSQETKSWINESAENFSNGISLVMEIVANAKESNYTDLIWFPEDFISPELIIDKVTCSSNSSSSPPIIDLFSNNNYNSRIQLMNDFTTKLINIKKFDISNDNLDLISEILKWVQWSRIVLQNVFKLVSTPSSNSNSSELEPDYQAPFSTSTKDKNSSTSNTEPIPRSNRHGSVVEASRRRRSSTNKSKRPSITEAMMLKEEGLQQFNLHEILSEPAIEEENGDSIKEHSTTMDGANDLGFTASVSNQENAGTDIVMEDHGVLQGTSQNYGTATADDADIEMKDVSSKPSKPESSVLQLIVSEDHIILDTISECNLYDDVKCWSKFIEKFQDIVS
B5: Rpb9 (natural protein, S. cerevisiae, UniProt P27999 1-122, looked up)
chain: MTTFRFCRDCNNMLYPREDKENNRLLFECRTCSYVEEAGSPLVYRHELITNIGETAGVVQDIGSDPTLPRSDRECPKCHSRENVFFQSQQRRKDTSMVLFFVCLSCSHIFTSDQKNKRTQFS

Key:
[1] = molecular target: T1, TFIIF; assay: cross-linking
[2] = molecular target: T2, Tfg1; assay: cross-linking + cryo-EM structure
[3] = molecular target: T3, Rad3; assay: cross-linking
[4] = molecular target: T4, Med5; assay: cross-linking
[5] = molecular target: B2; assay: cross-linking + cryo-EM structure

## B1
[1]
  binding result: binds

## B2
[2]
  binding result: binds

## B3
[3]
  binding result: binds

## B4
[4]
  binding result: binds

## B5
[5]
  binding result: binds
